# Reference: patent publication US20120114652A1 (AbbVie / Abbott, published 2012)
# Changes are numbered by the printed parent chain.
# B1: Antibody 11, scFv (scFv, V domains shown)
# VH: QVQLQQSGAEVKKPGSSVKVSCKASGGTFSSYAISWMRQAPGQGLEWMGGIIPIFGTANYAQKFQGRVTITADESTSTAYMELSGLRSEDTAVYYCAREKRQWLEGHFDYWGRGTPVTVSS
# VL: DIQMIQSPSFLSASTGDRVTITCQASEGIYHELAWYQQKPGKAPKLLIYRASSLASGAPSRFSGSGSGTDFTLTISSLQPDDFATYYCQQYSNYPLTFGGGTKLEIK
# B2: Antibody 06, scFv (scFv, V domains shown)
# VH: B1 VH with M37V, I54T
# VL: B1 VL with I5T, T15I, Q24R, G100R
# B3: Antibody 17, scFv (scFv, V domains shown)
# VH: B1 VH with M37V, I54T
# VL: B1 VL with I5T, T15I, Q24R
# B4: Antibody 25, scFv (scFv, V domains shown)
# VH: B1 VH with M37V, I54T, K100R, R113Q
# VL: B1 VL with I5T, T15I, Q24R, G28S, R50K, D70A
# B5: Antibody 05, scFv (scFv, V domains shown)
# VH: B1 VH with M37V, I54T, G56S, Q65R
# VL: B1 VL with I5T, T15I, Q24R, E32Q
# B6: Antibody 22, scFv (scFv, V domains shown)
# VH: B1 VH with S31G, M37V, I54T, A61S
# VL: B1 VL with I5T, P8L, T15I, Q24R, E32A
# B7: Antibody 10, scFv (scFv, V domains shown)
# VH: B1 VH with M37V, I54T, G85S
# VL: B1 VL with I5T, T15I, T20A, Q24R, E32S, K103R
# B8: Antibody 26, scFv (scFv, V domains shown)
# VH: B1 VH with S16T, M37V, G85S
# VL: B1 VL with I5T, T15I, Q24R, E32T
# B9: Antibody 07, scFv (scFv, V domains shown)
# VH: B1 VH with M37V, M48V, I54T
# VL: B1 VL with I5A, T15I, Q24R
# B10: Antibody 02, scFv (scFv, V domains shown)
# VH: B1 VH with Q5V, M37V, I54T, G85S, P116L
# VL: B1 VL with I5T, F10T, T15V, Q24R, E32S, R50K, A58V, D70E, N93D, L104V
# B11: Antibody 04, scFv (scFv, V domains shown)
# VH: B1 VH with Q3R, M37V, I54T, Q65R, D73N, H107R, P116L
# VL: B1 VL with I5T, T15I, V19I, Q24R, E32S, Y49H, S52T, A58T, S63G, T72A
# B12: Antibody 12, scFv (scFv, V domains shown)
# VH: B1 VH with M37V, I54T, G56P
# VL: B1 VL with I5T, T15I, Q24R, E32N
# B13: Antibody 03, scFv (scFv, V domains shown)
# VH: B1 VH with M37V, I54T
# VL: B1 VL with I5T, T15I, Q24R, H31R, E32S, R50K, S77G
# B14: Antibody 21, scFv (scFv, V domains shown)
# VH: B1 VH with Q1P, M37V, I54T
# VL: B1 VL with I5A, T15I, Q24R, E32N
# B15: Antibody 13, scFv (scFv, V domains shown)
# VH: B1 VH with M37V, I54T, G85D
# VL: B1 VL with I5T, T15I, Q24R, E32S
# B16: Antibody 23, scFv (scFv, V domains shown)
# VH: B1 VH with M37V, I54T, G66S
# VL: B1 VL with I5T, T15I, Q24R, E32S
# B17: Antibody 19, scFv (scFv, V domains shown)
# VH: B1 VH with M37V, G56D, K100R
# VL: B1 VL with Q3R, I5T, T15I, Q24R, D70E
# B18: Antibody 24, scFv (scFv, V domains shown)
# VH: B1 VH with M37V, I54T, G56V, T69S
# VL: B1 VL with I5T, T15I, Q24R, E32A
# Molecular target: T1, rat PAI-1 (rat, UniProt P20961 24-402)
# T1 sequence: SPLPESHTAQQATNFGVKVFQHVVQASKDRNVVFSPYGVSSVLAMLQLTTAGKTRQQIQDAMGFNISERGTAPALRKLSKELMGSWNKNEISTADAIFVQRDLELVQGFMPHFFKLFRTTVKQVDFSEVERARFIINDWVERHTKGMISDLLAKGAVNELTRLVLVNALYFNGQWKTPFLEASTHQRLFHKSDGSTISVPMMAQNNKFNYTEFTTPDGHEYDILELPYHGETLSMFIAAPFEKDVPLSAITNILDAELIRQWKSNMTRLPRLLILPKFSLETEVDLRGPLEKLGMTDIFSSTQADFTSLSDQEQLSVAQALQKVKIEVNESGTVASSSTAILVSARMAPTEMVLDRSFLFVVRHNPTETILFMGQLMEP
# Test: cell-based or functional assay
Binder,IC50 chromogenic [nM],IC50 ratio rat/human
B1,59.5,0.6
B2,37.1,0.5
B3,24.9,0.3
B4,322,24.6
B5,860,172
B6,406,81.2
B7,296,132
B8,245,61.4
B9,91,0.5
B10,530,891
B11,340,51.4
B12,78.2,34.4
B13,297,165
B14,49.2,12
B15,140,48.6
B16,376,229
B17,7.9,0.3
B18,127,39.3

# Molecular target: human PAI-1, active, wild-type, non-glycosylated (E. coli-derived) (human, UniProt P05121 24-402)
# Test: cell-based or functional assay
row,Binder,IC50 chromogenic [nM]
1,B1,102
2,B2,74.6
3,B3,71.5
4,B4,13.1
5,B5,5
6,B6,5
7,B7,2.2
8,B8,4
9,B9,187
10,B10,0.6
11,B11,6.6
12,B12,2.3
13,B13,1.8
14,B14,4.1
15,B15,2.9
16,B16,1.6
17,B17,26
18,B18,3.2

# Molecular target: T2, mouse PAI-1 (mouse, UniProt P22777 24-401)
# T2 sequence: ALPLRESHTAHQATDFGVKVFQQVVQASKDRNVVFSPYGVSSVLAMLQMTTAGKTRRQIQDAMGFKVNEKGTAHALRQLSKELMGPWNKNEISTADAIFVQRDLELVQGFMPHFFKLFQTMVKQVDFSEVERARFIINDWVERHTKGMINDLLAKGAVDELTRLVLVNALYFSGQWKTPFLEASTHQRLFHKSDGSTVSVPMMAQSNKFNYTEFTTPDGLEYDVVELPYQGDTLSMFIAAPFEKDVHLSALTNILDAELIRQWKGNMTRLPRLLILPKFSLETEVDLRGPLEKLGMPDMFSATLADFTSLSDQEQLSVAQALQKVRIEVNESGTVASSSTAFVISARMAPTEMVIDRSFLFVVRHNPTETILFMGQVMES
# Test: cell-based or functional assay
Binder,IC50 chromogenic [nM],IC50 ratio mouse/human
B1,33.6,0.3
B2,48.2,0.6
B3,26.2,0.4
B4,172,13.1
B5,718,144
B6,413,82.6
B7,334,149
B8,211,52.9
B9,143,0.8
B10,553,929
B11,264,39.9
B12,27.8,12.2
B13,54.9,30.5
B14,32.2,7.9
B15,247,85.8
B16,376,229
B17,6.4,0.2
B18,140,43.3

# Molecular target: cynomolgus PAI-1 (cynomolgus, UniProt P05121 24-402 (human entry), limits assumed)
# Test: cell-based or functional assay
Binder,IC50 chromogenic [nM],IC50 ratio cyno/human
B1,43.8,0.4
B2,31.6,0.4
B3,41.5,0.6
B4,4.6,0.4
B5,0.5,0.1
B6,1.5,0.3
B7,0.5,0.2
B8,1.2,0.3
B9,117,0.6
B10,1.1,1.8
B11,2.1,0.3
B12,0.6,0.3
B13,0.1,0.1
B14,1.6,0.4
B15,1.2,0.4
B16,0.5,0.3
B17,10.8,0.4
B18,1.1,0.3
